# B1: UDP-glucuronosyltransferase 1A9 (Homo sapiens) (protein)
# chain: MACTGWTSPLPLCVCLLLTCGFAEAGKLLVVPMDGSHWFTMRSVVEKLILRGHEVVVVMPEVSWQLGRSLNCTVKTYSTSYTLEDLDREFKAFAHAQWKAQVRSIYSLLMGSYNDIFDLFFSNCRSLFKDKKLVEYLKESSFDAVFLDPFDNCGLIVAKYFSLPSVVFARGILCHYLEEGAQCPAPLSYVPRILLGFSDAMTFKERVRNHIMHLEEHLLCHRFFKNALEIASEILQTPVTEYDLYSHTSIWLLRTDFVLDYPKPVMPNMIFIGGINCHQGKPLPMEFEAYINASGEHGIVVFSLGSMVSEIPEKKAMAIADALGKIPQTVLWRYTGTRPSNLANNTILVKWLPQNDLLGHPMTRAFITHAGSHGVYESICNGVPMVMMPLFGDQMDNAKRMETKGAGVTLNVLEMTSEDLENALKAVINDKSYKENIMRLSSLHKDRPVEPLDLAVFWVEFVMRHKGAPHLRPAAHDLTWYQYHSLDVIGFLLAVVLTVAFITFKCCAYGYRKCLGKKGRVKKAHKSKTH
# B2: UDP-glucuronosyltransferase 1A10 (Homo sapiens) (protein)
# chain: MARAGWTSPVPLCVCLLLTCGFAEAGKLLVVPMDGSHWFTMQSVVEKLILRGHEVVVVMPEVSWQLERSLNCTVKTYSTSYTLEDQNREFMVFAHAQWKAQAQSIFSLLMSSSSGFLDLFFSHCRSLFNDRKLVEYLKESSFDAVFLDPFDTCGLIVAKYFSLPSVVFTRGIFCHHLEEGAQCPAPLSYVPNDLLGFSDAMTFKERVWNHIVHLEDHLFCQYLFRNALEIASEILQTPVTAYDLYSHTSIWLLRTDFVLDYPKPVMPNMIFIGGINCHQGKPLPMEFEAYINASGEHGIVVFSLGSMVSEIPEKKAMAIADALGKIPQTVLWRYTGTRPSNLANNTILVKWLPQNDLLGHPMTRAFITHAGSHGVYESICNGVPMVMMPLFGDQMDNAKRMETKGAGVTLNVLEMTSEDLENALKAVINDKSYKENIMRLSSLHKDRPVEPLDLAVFWVEFVMRHKGAPHLRPAAHDLTWYQYHSLDVIGFLLAVVLTVAFITFKCCAYGYRKCLGKKGRVKKAHKSKTH
# B3: UDP-glucuronosyltransferase 1A3 (Homo sapiens) (protein)
# chain: MATGLQVPLPWLATGLLLLLSVQPWAESGKVLVVPIDGSHWLSMREVLRELHARGHQAVVLTPEVNMHIKEENFFTLTTYAISWTQDEFDRHVLGHTQLYFETEHFLKKFFRSMAMLNNMSLVYHRSCVELLHNEALIRHLNATSFDVVLTDPVNLCAAVLAKYLSIPTVFFLRNIPCDLDFKGTQCPNPSSYIPRLLTTNSDHMTFMQRVKNMLYPLALSYICHAFSAPYASLASELFQREVSVVDILSHASVWLFRGDFVMDYPRPIMPNMVFIGGINCANRKPLSQEFEAYINASGEHGIVVFSLGSMVSEIPEKKAMAIADALGKIPQTVLWRYTGTRPSNLANNTILVKWLPQNDLLGHPMTRAFITHAGSHGVYESICNGVPMVMMPLFGDQMDNAKRMETKGAGVTLNVLEMTSEDLENALKAVINDKSYKENIMRLSSLHKDRPVEPLDLAVFWVEFVMRHKGAPHLRPAAHDLTWYQYHSLDVIGFLLAVVLTVAFITFKCCAYGYRKCLGKKGRVKKAHKSKTH
# B4: UDP-glucuronosyltransferase 1A7 (Homo sapiens) (protein)
# chain: MARAGWTGLLPLYVCLLLTCGFAKAGKLLVVPMDGSHWFTMQSVVEKLILRGHEVVVVMPEVSWQLGRSLNCTVKTYSTSYTLEDQDREFMVFADARWTAPLRSAFSLLTSSSNGIFDLFFSNCRSLFNDRKLVEYLKESCFDAVFLDPFDACGLIVAKYFSLPSVVFARGIFCHYLEEGAQCPAPLSYVPRLLLGFSDAMTFKERVWNHIMHLEEHLFCPYFFKNVLEIASEILQTPVTAYDLYSHTSIWLLRTDFVLEYPKPVMPNMIFIGGINCHQGKPVPMEFEAYINASGEHGIVVFSLGSMVSEIPEKKAMAIADALGKIPQTVLWRYTGTRPSNLANNTILVKWLPQNDLLGHPMTRAFITHAGSHGVYESICNGVPMVMMPLFGDQMDNAKRMETKGAGVTLNVLEMTSEDLENALKAVINDKSYKENIMRLSSLHKDRPVEPLDLAVFWVEFVMRHKGAPHLRPAAHDLTWYQYHSLDVIGFLLAVVLTVAFITFKCCAYGYRKCLGKKGRVKKAHKSKTH
# B5: UDP-glucuronosyltransferase 2B7 (Homo sapiens) (protein)
# chain: MSVKWTSVILLIQLSFCFSSGNCGKVLVWAAEYSHWMNIKTILDELIQRGHEVTVLASSASILFDPNNSSALKIEIYPTSLTKTELENFIMQQIKRWSDLPKDTFWLYFSQVQEIMSIFGDITRKFCKDVVSNKKFMKKVQESRFDVIFADAIFPCSELLAELFNIPFVYSLSFSPGYTFEKHSGGFIFPPSYVPVVMSELTDQMTFMERVKNMIYVLYFDFWFEIFDMKKWDQFYSEVLGRPTTLSETMGKADVWLIRNSWNFQFPYPLLPNVDFVGGLHCKPAKPLPKEMEDFVQSSGENGVVVFSLGSMVSNMTEERANVIASALAQIPQKVLWRFDGNKPDTLGLNTRLYKWIPQNDLLGHPKTRAFITHGGANGIYEAIYHGIPMVGIPLFADQPDNIAHMKARGAAVRVDFNTMSSTDLLNALKRVINDPSYKENVMKLSRIQHDQPVKPLDRAVFWIEFVMRHKGAKHLRVAAHDLTWFQYHSLDVIGFLLVCVATVIFIVTKCCLFCFWKFARKAKKGKND
# B6: UDP-glucuronosyltransferase 1A6 (Homo sapiens) (protein)
# chain: MACLLRSFQRISAGVFFLALWGMVVGDKLLVVPQDGSHWLSMKDIVEVLSDRGHEIVVVVPEVNLLLKESKYYTRKIYPVPYDQEELKNRYQSFGNNHFAERSFLTAPQTEYRNNMIVIGLYFINCQSLLQDRDTLNFFKESKFDALFTDPALPCGVILAEYLGLPSVYLFRGFPCSLEHTFSRSPDPVSYIPRCYTKFSDHMTFSQRVANFLVNLLEPYLFYCLFSKYEELASAVLKRDVDIITLYQKVSVWLLRYDFVLEYPRPVMPNMVFIGGINCKKRKDLSQEFEAYINASGEHGIVVFSLGSMVSEIPEKKAMAIADALGKIPQTVLWRYTGTRPSNLANNTILVKWLPQNDLLGHPMTRAFITHAGSHGVYESICNGVPMVMMPLFGDQMDNAKRMETKGAGVTLNVLEMTSEDLENALKAVINDKSYKENIMRLSSLHKDRPVEPLDLAVFWVEFVMRHKGAPHLRPAAHDLTWYQYHSLDVIGFLLAVVLTVAFITFKCCAYGYRKCLGKKGRVKKAHKSKTH
# B7: UDP-glucuronosyltransferase 1A8 (Homo sapiens) (protein)
# chain: MARTGWTSPIPLCVSLLLTCGFAEAGKLLVVPMDGSHWFTMQSVVEKLILRGHEVVVVMPEVSWQLGKSLNCTVKTYSTSYTLEDLDREFMDFADAQWKAQVRSLFSLFLSSSNGFFNLFFSHCRSLFNDRKLVEYLKESSFDAVFLDPFDACGLIVAKYFSLPSVVFARGIACHYLEEGAQCPAPLSYVPRILLGFSDAMTFKERVRNHIMHLEEHLFCQYFSKNALEIASEILQTPVTAYDLYSHTSIWLLRTDFVLDYPKPVMPNMIFIGGINCHQGKPLPMEFEAYINASGEHGIVVFSLGSMVSEIPEKKAMAIADALGKIPQTVLWRYTGTRPSNLANNTILVKWLPQNDLLGHPMTRAFITHAGSHGVYESICNGVPMVMMPLFGDQMDNAKRMETKGAGVTLNVLEMTSEDLENALKAVINDKSYKENIMRLSSLHKDRPVEPLDLAVFWVEFVMRHKGAPHLRPAAHDLTWYQYHSLDVIGFLLAVVLTVAFITFKCCAYGYRKCLGKKGRVKKAHKSKTH
# How the values were obtained:
# Homo sapiens = test: Drug level in human assessed as retention time treated with 40 mg, po of scutellarin measured up to 20 hrs by mass defect filter chromatogram analysis; type: ADME, organism-based
# [1] = substrate: O=c1cc(-c2ccc(O)cc2)oc2cc(O)c(O)c(O)c12; test: Drug metabolism assessed as human recombinant UGT1A9-mediated formation of scutellarein-6-O-glucuronide after 25 mins by HPLC/UV analysis; type: ADME
# [2] = substrate: O=c1cc(-c2ccc(O)cc2)oc2cc(O)c(O)c(O)c12; test: Drug metabolism assessed as human recombinant UGT1A9-mediated formation of scutellarein-7-O-glucuronide after 25 mins by HPLC/UV analysis; type: ADME
# [3] = substrate: O=c1cc(-c2ccc(O)cc2)oc2cc(O)c(O)c(O)c12; test: Drug metabolism assessed as human recombinant UGT1A10-mediated formation of scutellarein-7-O-glucuronide after 25 mins by HPLC/UV analysis; type: ADME
# [4] = substrate: O=c1cc(-c2ccc(O)cc2)oc2cc(O)c(O)c(O)c12; test: Drug metabolism assessed as human recombinant UGT1A10-mediated formation of scutellarein-6-O-glucuronide after 25 mins by HPLC/UV analysis; type: ADME
# [5] = substrate: O=c1cc(-c2ccc(O)cc2)oc2cc(O)c(O)c(O)c12; test: Drug metabolism assessed as human recombinant UGT1A3-mediated formation of scutellarein-7-O-glucuronide after 25 mins by HPLC/UV analysis; type: ADME
# [6] = substrate: O=c1cc(-c2ccc(O)cc2)oc2cc(O)c(O)c(O)c12; test: Drug metabolism assessed as human recombinant UGT1A7-mediated formation of scutellarein-7-O-glucuronide after 25 mins by HPLC/UV analysis; type: ADME
# [7] = substrate: O=c1cc(-c2ccc(O)cc2)oc2cc(O)c(O)c(O)c12; test: Drug metabolism assessed as human recombinant UGT2B7-mediated formation of scutellarein-6-O-glucuronide after 25 mins by HPLC/UV analysis; type: ADME
# [8] = substrate: O=c1cc(-c2ccc(O)cc2)oc2cc(O)c(O)c(O)c12; test: Drug metabolism assessed as human recombinant UGT1A6-mediated formation of scutellarein-7-O-glucuronide after 25 mins by HPLC/UV analysis; type: ADME
# [9] = substrate: O=c1cc(-c2ccc(O)cc2)oc2cc(O)c(O)c(O)c12; test: Drug metabolism assessed as human recombinant UGT1A8-mediated formation of scutellarein-7-O-glucuronide after 25 mins by HPLC/UV analysis; type: ADME
molecule,measurement,setting,value
O=C(O)[C@H]1O[C@@H](Oc2cc3oc(-c4ccc(O)cc4)cc(=O)c3c(O)c2O[C@@H]2O[C@H](C(=O)O)[C@@H](O)[C@H](O)[C@H]2O)[C@H](O)[C@@H](O)[C@@H]1O,Retention_time,Homo sapiens,6.02 min
B1,Km,[1],10.9 µM
same,Vmax,[1],0.00167 µmol/min/mg
same,Vmax/Km,[1],153 µL/min/mg
same,Km,[2],5.49 µM
same,Vmax,[2],0.00463 µmol/min/mg
same,Vmax/Km,[2],843 µL/min/mg
B2,Km,[3],5.68 µM
same,Vmax,[3],0.000318 µmol/min/mg
same,Vmax/Km,[3],55.9 µL/min/mg
same,Km,[4],2.74 µM
same,Vmax,[4],3.8e-05 µmol/min/mg
same,Vmax/Km,[4],13.7 µL/min/mg
B3,Km,[5],7.34 µM
same,Vmax,[5],0.00178 µmol/min/mg
same,Vmax/Km,[5],243 µL/min/mg
B4,Km,[6],33.3 µM
same,Vmax,[6],0.000795 µmol/min/mg
same,Vmax/Km,[6],23.9 µL/min/mg
B5,Km,[7],11.5 µM
same,Vmax,[7],8.9e-05 µmol/min/mg
same,Vmax/Km,[7],7.74 µL/min/mg
B6,Km,[8],27 µM
same,Vmax,[8],0.00167 µmol/min/mg
same,Vmax/Km,[8],62 µL/min/mg
B7,Km,[9],19 µM
same,Vmax,[9],0.000673 µmol/min/mg
same,Vmax/Km,[9],35.4 µL/min/mg
